Columns and labels:
[1] = target: T1, #5 (8454); test: Western blot of partially Lys-C digested rhC35, MAb 163, goat anti-human-HRP, TMB
T1 construct: One member of the group m17; also called predicted partial Lys-C digest fragment #5 of rhC35; 8kDa N-terminal fragment
T1 N-terminal fragment of 6-His-tagged rhC35, from the N-terminus to the first Lys-C tick: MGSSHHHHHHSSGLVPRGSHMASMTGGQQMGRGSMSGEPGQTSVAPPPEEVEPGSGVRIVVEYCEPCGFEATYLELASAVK

[2] = target: T2, 6×His-tagged recombinant human C35 (human); test: SPR (Biacore), MAb 163 captured on goat anti-human IgG Fc on a CM5 chip, rC35 in solution, 1:1 kinetic model
T2 construct: Made in E. coli; also called rhC35; rC35

[3] = target: T3, C35 protein (recombinant, construct not stated) (human, UniProt Q9BRT3 1-115, limits assumed); test: ELISA on C35 or control protein A27L, secreted antibody from HeLa cells
T3 construct: also called recombinant C35 protein; control C35 protein
T3 sequence: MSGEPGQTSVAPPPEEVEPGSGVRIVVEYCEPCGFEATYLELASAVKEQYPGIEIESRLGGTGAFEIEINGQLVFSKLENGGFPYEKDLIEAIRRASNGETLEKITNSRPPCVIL

[4] = target: T3, C35 protein (recombinant, construct not …); test: ELISA and Western blot

B1: MAb 163 human anti-C35 monoclonal antibody (antibody, V domains shown)
VH: EVQLVESGGGLVKPGGSLRLSCEVSGITFSNAWMSWVRQAPGKGLEWVGRIKSKTDGGTTDYAAPVKGRFTISRDDSKNTLYLQMNSLKTEDTAVYYCSIGYYYDSSFKYGMDVWGQGTTVTVSS
VL: DIQMTQSPATLSASVGDRVTITCRASQSISRWLAWYQQKPGQAPKVLIYKASTLQSGVPSRFSGSGSGTEFSLTINSLQPDDFATYYCQQYYSYLRTFGQGTKLEIK
notes: Fully human antibody (clones H730 and L74), detected or captured with anti-human IgG reagents
- binding result [1]: no binding
- Ka [2]: 2.96e+08 M⁻¹
- Kd [2]: 3.38 nM
- koff [2]: 0.000959 s⁻¹
- kon [2]: 284000 M⁻¹ s⁻¹

B2: MAb 165 (antibody, V domains shown)
VH: QVQLQESGPGLVKPPETLSLTCNVSGGSIGRYYWNWIRQSPGKGLEWIGHIHYSGSTIYHPSLKSRVSISLDTSKNQVSLKLSSVTAADTAVYYCARGAYYGGAFFPYFDVWGQGTTVTVSS
VL: DIQMTQSPSSLSASMGDRVTITCRASQGIRNHLAWYQQKPGKAPNLLISAASTLQSGVPTRFSGSGSGTDFTLTISSLQPEDSATYYCQQYNRYPLTFGQGTKLEIK
notes: also called 141D10 VH H732 with UH8 VK L120
- binding result [3]: binds

B3: 1B3 murine anti-C35 monoclonal antibody (antibody, V domains shown)
VH: EVQLQESGPSLVKPSQTLSLTCSVTGDSITSGYWNWIRKFPGNKLEYVGYISYSGGTYYNPSLKSRISITRDTSKNHYYLQLNSVTTEDTATYYCARGAYYGGAFFPYFDVWGAGTTVTVSS
VL: DVQITQSPSFLAASPGETITINCRASKYISKHLVWYQEKPGETKKLLIYSGSTLQSGLPSRFSGSGSGTDFTLTISSLEPEDFAMYYCQQHNEYPLTFGAGTKLELK
notes: also called hybridoma 1B3.6.1
- binding result [4]: binds

— US20080305111A1 (VACCINEX, published 2008)
